Laboratory results: patent publication US20210347852A1 (Regeneron, published 2021)
Numbering of substitutions follows the chain as printed. One block for each binder: values may come before it.

Experiments:
[1] = target: T1, Human VEGF165 (REGN110) (human, UniProt P15692-4 27-191); assay: cell-based or functional assay
[2] = target: T2, Human VEGF121 (R&D SYSTEMS Cat #4644-VS) (human, UniProt P15692-9 27-147); assay: cell-based or functional assay
T2 sequence (looked up): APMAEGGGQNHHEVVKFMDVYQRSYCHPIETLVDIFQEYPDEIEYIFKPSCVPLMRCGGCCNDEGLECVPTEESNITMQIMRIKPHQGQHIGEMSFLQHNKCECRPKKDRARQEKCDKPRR

[3] = target: T1, Human VEGF165 (REGN110); assay: SPR, 25C, trap captured by REGN18, hVEGF165 injected
Protocol: (§1) Equilibrium dissociation constants (KD values) for human VEGF₁₆₅ binding to various purified VEGF mini-trap constructs were determined using a real-time surface plasmon resonance biosensor using a Biacore 3000 instrument. All binding studies were performed in 10 mM HEPES, 150 mM NaCl, 3 mM EDTA, and 0.05% v/v Surfactant Tween-20; pH 7.4 (HBS-ET) running buffer at 25° C. The Biacore sensor surface was first derivatized by amine coupling with a monoclonal mouse anti-VEGFR1 antibody (REGN18) to capture VEGF mini-trap constructs. Binding studies were performed on the following human VEGF reagents: human VEGF₁₆₅. […] Dissociation of bound VEGF₁₆₅ reagent from VEGF mini-trap constructs was monitored for 60 minutes in HBS-ET running buffer. Kinetic association (ka) and dissociation (kd) rate constants were determined by fitting the real-time sensorgrams to a 1:1 binding model using Scrubber 2.0c curve fitting software. Binding dissociation equilibrium constants (KD) and dissociative half-lives (t1/2) were calculated from the kinetic rate constants as: […]

[4] = target: T2, Human VEGF121 (R&D SYSTEMS Cat #4644-VS); assay: cell-based or functional assay; remark: listed apart in the source
[5] = target: T2, Human VEGF121 (R&D SYSTEMS Cat #4644-VS); assay: cell-based or functional assay; remark: listed apart in the source
[6] = target: T1, Human VEGF165 (REGN110); assay: SPR (Biacore 3000), 25C, trap captured by REGN18, hVEGF165 injected
Protocol: as §1

[7] = target: T2, Human VEGF121 (R&D SYSTEMS Cat #4644-VS); assay: cell-based or functional assay; remark: listed apart in the source
[8] = target: T2, Human VEGF121 (R&D SYSTEMS Cat #4644-VS); assay: cell-based or functional assay; remark: listed apart in the source
[9] = target: T2, Human VEGF121 (R&D SYSTEMS Cat #4644-VS); assay: cell-based or functional assay; remark: listed apart in the source

B1: REGN11095, VEGF mini-trap hIgG1 Mut GGGL Fc (other)
chain: SDTGRPFVEMYSEIPEIIHMTEGRELVIPCRVTSPNITVTLKKFPLDTLIPDGKRIIWDSRKGFIISNATYKEIGLLTCEATVNGHLYKTNYLTHRQTNTIIDVVLSPSHGIELSVGEKLVLNCTARTELNVGIDFNWEYPSSKHQHKKLVNRDLKTQSGSEMKKFLSTLTIDGVTRSDQGLYTCAASSGLMTKKNSTFVRVHEKDKTHTCPPCPGGGLLG
notes: also called Mini-REGN10514; mREGN10514
- IC50, VEGFR1 40 pM VEGF165 (REGN110) (luciferase) [1]: 2.19e-11 M
- IC50, VEGFR1 40 pM R&D VEGF121 (luciferase) [2]: 2.16e-11 M
- 2 nM VEGF165 Bound (RU) [3]: 19.4 RU
- Kd [3]: ≤ 0.86 pM
- koff [3]: ≤ 1e-05 s⁻¹
- kon [3]: 1.16e+07 M⁻¹ s⁻¹
- t½ [3]: ≥ 19.2 h

B2: REGN11095 (Alexa 488) (other)
chain: B1 chain
modifications: tagged with Alexa Fluor 488 (AF488) through amine conjugation
notes: also called REGN11095 AF488
- 2 nM VEGF165 Bound (RU) [3]: 14.9 RU
- Kd [3]: ≤ 0.865 pM
- koff [3]: ≤ 1e-05 s⁻¹
- kon [3]: 1.16e+07 M⁻¹ s⁻¹
- t½ [3]: ≥ 19.2 h

B3: REGN10105, VEGF mini-trap hIgG2 Fc w/2Cys (other)
chain: SDTGRPFVEMYSEIPEIIHMTEGRELVIPCRVTSPNITVTLKKFPLDTLIPDGKRIIWDSRKGFIISNATYKEIGLLTCEATVNGHLYKTNYLTHRQTNTIIDVVLSPSHGIELSVGEKLVLNCTARTELNVGIDFNWEYPSSKHQHKKLVNRDLKTQSGSEMKKFLSTLTIDGVTRSDQGLYTCAASSGLMTKKNSTFVRVHEKVECPPCPAPPVA
notes: IdeS cleaved from the IgG2 trap; they are kept as one molecule here; also called REGN10105-L3
- IC50, Inhibition of 20 pM VEGF121, VEGFR1 assay (luciferase) [4]: 1.68e-11 M
- IC50, VEGFR1 40 pM VEGF165 (REGN110) (luciferase) [1]: 1.06e-11 M
- IC50, VEGFR1 40 pM R&D VEGF121 (luciferase) [2]: 1.74e-11 M
- IC50 (read off the curve); NFkB-luciferase reporter (RLU), 293/D9/VEGFR1 cells, VEGF121 constant 40 pM [E] [5]: ~2e-11 M
- 2 nM VEGF165 Bound (RU) [3]: 20.4 RU
- Kd [3]: 1.08 pM
- koff [3]: ≤ 1e-05 s⁻¹
- kon [3]: 9.3e+06 M⁻¹ s⁻¹
- t½ [3]: ≥ 19.2 h
- 2.5 nM hVEGF165 Bound (RU) [6]: 10.5 RU
- Kd [6]: 1.89 pM
- koff [6]: 1.44e-05 s⁻¹
- kon [6]: 7.62e+06 M⁻¹ s⁻¹
- t½ [6]: 13.3 h

B4: REGN10105 (Alexa 488) (other)
chain: B3 chain
modifications: tagged with Alexa Fluor 488 (AF488) through amine conjugation
notes: also called REGN10105 AF488
- 2 nM VEGF165 Bound (RU) [3]: 18 RU
- Kd [3]: ≤ 0.74 pM
- koff [3]: ≤ 1e-05 s⁻¹
- kon [3]: 1.36e+07 M⁻¹ s⁻¹
- t½ [3]: ≥ 19.2 h

B6: REGN10103, VEGF mini-trap hIgG2 Fc w/4Cys (other)
chain: SDTGRPFVEMYSEIPEIIHMTEGRELVIPCRVTSPNITVTLKKFPLDTLIPDGKRIIWDSRKGFIISNATYKEIGLLTCEATVNGHLYKTNYLTHRQTNTIIDVVLSPSHGIELSVGEKLVLNCTARTELNVGIDFNWEYPSSKHQHKKLVNRDLKTQSGSEMKKFLSTLTIDGVTRSDQGLYTCAASSGLMTKKNSTFVRVHEKERKCCVECPPCPAPPVA
- IC50, Inhibition of 20 pM VEGF121, VEGFR1 assay (luciferase) [4]: 2.11e-11 M
- IC50 (read off the curve); NFkB-luciferase reporter (RLU), 293/D9/VEGFR1 cells, VEGF121 constant 40 pM [E] [5]: ~2e-11 M
- 2.5 nM hVEGF165 Bound (RU) [6]: 14.8 RU
- Kd [6]: ≤ 1.08 pM
- koff [6]: ≤ 1e-05 s⁻¹
- kon [6]: 9.3e+06 M⁻¹ s⁻¹
- t½ [6]: ≥ 19.2 h

Continued, values first:

- IC50, Inhibition of 20 pM VEGF121, VEGFR1 assay (luciferase) [4]: 1.91e-11 M
- IC50 (read off the curve); NFkB-luciferase reporter (RLU), 293/D9/VEGFR1 cells, VEGF121 constant 40 pM [B] [7]: ~2e-11 M
- 2.5 nM hVEGF165 Bound (RU) [6]: 7.3 RU
- Kd [6]: 1.1 pM
- koff [6]: 1.01e-05 s⁻¹
- kon [6]: 9.2e+06 M⁻¹ s⁻¹
- t½ [6]: 19.1 h
B5: REGN10104, VEGF Trap hIgG1 stealth Fc (Fc fusion)
chain: SDTGRPFVEMYSEIPEIIHMTEGRELVIPCRVTSPNITVTLKKFPLDTLIPDGKRIIWDSRKGFIISNATYKEIGLLTCEATVNGHLYKTNYLTHRQTNTIIDVVLSPSHGIELSVGEKLVLNCTARTELNVGIDFNWEYPSSKHQHKKLVNRDLKTQSGSEMKKFLSTLTIDGVTRSDQGLYTCAASSGLMTKKNSTFVRVHEKDKTHTCPPCPAPPVAGPSVFLFPPKPKDTLMISRTPEVTCVVVDVSQEDPEVQFNWYVDGVEVHNAKTKPREEQFNSTYRVVSVLTVLHQDWLNGKEYKCKVSNKGLPSSIEKTISKAKGQPREPQVYTLPPSRDELTKNQVSLTCLVKGFYPSDIAVEWESNGQPENNYKTTPPVLDSDGSFFLYSKLTVDKSRWQQGNVFSCSVMHEALHNHYTQKSLSLSPGK

- IC50, Inhibition of 20 pM VEGF121, VEGFR1 assay (luciferase) [4]: 1.32e-11 M
- IC50 (read off the curve); NFkB-luciferase reporter (RLU), 293/D9/VEGFR1 cells, VEGF121 constant 40 pM [D] [8]: ~1e-11 M
- 2.5 nM hVEGF165 Bound (RU) [6]: 14.3 RU
- Kd [6]: ≤ 1.37 pM
- koff [6]: ≤ 1e-05 s⁻¹
- kon [6]: 7.3e+06 M⁻¹ s⁻¹
- t½ [6]: ≥ 19.2 h
B7: mREGN10187, VEGF mini-trap hIgG4 stealth Fc (other)
chain: B6 chain with R207S, C209Y, C210G, V211P, E212P
notes: IdeS cleaved from REGN10187; also called Mini-REGN10187

- IC50, Inhibition of 20 pM VEGF121, VEGFR1 assay (luciferase) [4]: 2.02e-11 M
- IC50 (read off the curve); NFkB-luciferase reporter (RLU), 293/D9/VEGFR1 cells, VEGF121 constant 40 pM [A] [9]: ~2e-11 M
- 2.5 nM hVEGF165 Bound (RU) [6]: 4.2 RU
- Kd [6]: ≤ 1.37 pM
- koff [6]: ≤ 1e-05 s⁻¹
- kon [6]: 7.3e+06 M⁻¹ s⁻¹
- t½ [6]: ≥ 19.2 h
B8: REGN10117, VEGF Trap hIgG2 Fc w/4 Cys (Fc fusion)
chain: SDTGRPFVEMYSEIPEIIHMTEGRELVIPCRVTSPNITVTLKKFPLDTLIPDGKRIIWDSRKGFIISNATYKEIGLLTCEATVNGHLYKTNYLTHRQTNTIIDVVLSPSHGIELSVGEKLVLNCTARTELNVGIDFNWEYPSSKHQHKKLVNRDLKTQSGSEMKKFLSTLTIDGVTRSDQGLYTCAASSGLMTKKNSTFVRVHEKERKCCVECPPCPAPPVAGPSVFLFPPKPKDTLMISRTPEVTCVVVDVSHEDPEVQFNWYVDGVEVHNAKTKPREEQFNSTFRVVSVLTVVHQDWLNGKEYKCKVSNKGLPAPIEKTISKTKGQPREPQVYTLPPSREEMTKNQVSLTCLVKGFYPSDIAVEWESNGQPENNYKTTPPMLDSDGSFFLYSKLTVDKSRWQQGNVFSCSVMHEALHNHYTQKSLSLSPGK

- IC50, Inhibition of 20 pM VEGF121, VEGFR1 assay (luciferase) [4]: 1.25e-11 M
- IC50 (read off the curve); NFkB-luciferase reporter (RLU), 293/D9/VEGFR1 cells, VEGF121 constant 40 pM [D] [8]: ~1e-11 M
- 2.5 nM hVEGF165 Bound (RU) [6]: 10.5 RU
- Kd [6]: 1.82 pM
- koff [6]: 1.73e-05 s⁻¹
- kon [6]: 9.5e+06 M⁻¹ s⁻¹
- t½ [6]: 11.1 h
B9: REGN10187, VEGF Trap hIgG4 stealth Fc (Fc fusion)
chain: SDTGRPFVEMYSEIPEIIHMTEGRELVIPCRVTSPNITVTLKKFPLDTLIPDGKRIIWDSRKGFIISNATYKEIGLLTCEATVNGHLYKTNYLTHRQTNTIIDVVLSPSHGIELSVGEKLVLNCTARTELNVGIDFNWEYPSSKHQHKKLVNRDLKTQSGSEMKKFLSTLTIDGVTRSDQGLYTCAASSGLMTKKNSTFVRVHEKESKYGPPCPPCPAPPVAGPSVFLFPPKPKDTLMISRTPEVTCVVVDVSQEDPEVQFNWYVDGVEVHNAKTKPREEQFNSTYRVVSVLTVLHQDWLNGKEYKCKVSNKGLPSSIEKTISKAKGQPREPQVYTLPPSQEEMTKNQVSLTCLVKGFYPSDIAVEWESNGQPENNYKTTPPVLDSDGSFFLYSRLTVDKSRWQEGNVFSCSVMHEALHNHYTQKSLSLSLGK

- IC50, Inhibition of 20 pM VEGF121, VEGFR1 assay (luciferase) [4]: 1.34e-11 M
- IC50 (read off the curve); NFkB-luciferase reporter (RLU), 293/D9/VEGFR1 cells, VEGF121 constant 40 pM [B] [7]: ~1e-11 M
- 2.5 nM hVEGF165 Bound (RU) [6]: 12.2 RU
- Kd [6]: 1.78 pM
- koff [6]: 1.7e-05 s⁻¹
- kon [6]: 9.5e+06 M⁻¹ s⁻¹
- t½ [6]: 11.3 h
B10: mREGN10104, VEGF mini-trap hIgG1 stealth Fc (other)
chain: SDTGRPFVEMYSEIPEIIHMTEGRELVIPCRVTSPNITVTLKKFPLDTLIPDGKRIIWDSRKGFIISNATYKEIGLLTCEATVNGHLYKTNYLTHRQTNTIIDVVLSPSHGIELSVGEKLVLNCTARTELNVGIDFNWEYPSSKHQHKKLVNRDLKTQSGSEMKKFLSTLTIDGVTRSDQGLYTCAASSGLMTKKNSTFVRVHEKDKTHTCPPCPAPPVA
notes: IdeS cleaved from REGN10104; also called Mini-REGN10104
